Assay results from patent US20170319648A1 (BAO KANG BIOMEDICAL HEALTHCARE, published 2017).
Positions of bridges follow the written chain, without caps; N, C: chain ends. Non-standard residues stand in square brackets, D forms with d. No end group written: not given here. hCys = N[C@@H](CCS)C(=O)O

T1: TEAD
T1 chain: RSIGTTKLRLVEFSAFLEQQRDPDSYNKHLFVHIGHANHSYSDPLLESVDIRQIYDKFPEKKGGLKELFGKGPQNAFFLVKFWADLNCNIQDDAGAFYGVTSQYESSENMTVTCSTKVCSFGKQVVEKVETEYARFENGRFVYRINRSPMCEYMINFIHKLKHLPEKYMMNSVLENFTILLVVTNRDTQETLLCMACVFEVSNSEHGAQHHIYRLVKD


Target: T1, TEAD
Assay: IC50 for TEAD binding; method not named in the example (TR-FRET test is the filing's screening method)

Row | Binder | IC50 [nM]
1 | VPMCLRKLPESFCHPPE (disulfide 4-13) [polypeptide of SEQ ID NO.: 8 (VPMCLRKLPESFCHPPE)] | 28
2 | VPM[hCys]LRKLPCSFCDPPE (disulfide 4-13) [polypeptide of SEQ ID NO.: 9 (VPM(Hcy)LRKLPCSFCDPPE)] | 25
